Measured values published in patent publication US20190062383A1 (Janssen / Centocor, published 2019).

Biological target: KV1N2 (OsK1-Fc fusion) (Orthochirus scrobiculosus)
Assay: FACS competition with agitoxin2-cys-TAMRA

B1: hKv1.3 E3 loop/hKv1.5 chimera (receptor)
chain: MEIALVPLENGGAMTVRGGDEARAGCGQATGGELQCPPTAGLSDGPKEPAPKGRGAQRDADSGVRPLPPLPDPGVRPLPPLPEELPRPRRPPPEDEEEEGDPGLGTVEDQALGTASLHHQRVHINISGLRFETQLGTLAQFPNTLLGDPAKRLRYFDPLRNEYFFDRNRPSFDGILYYYQSGGRLRRPVNVSLDVFADEIRFYQLGDEAMERFREDEGFIKEEEKPLPRNEFQRQVWLIFEYPESSGSARAIAIVSVLVILISIITFCLETLPEFRDERELLRHPPAPHQPPAPAPGANGSGVMAPPSGPTVAPLLPRTLADPFFIVETTCVIWFTFELLVRFFACPSKAGFSRNIMNIIDVVAIFPYFITLGTELAEQQPGGGGGGQNGQQAMSLAILRVIRLVRVFRIFKLSRHSKGLQILGKTLQASMRELGLLIFFLFIGVILFSSAVYFAEADDPTSGFSSIPDAFWWAVVTMTTVGYGDMHPVTIGGKIVGSLCAIAGVLTIALPVPVIVSNFNYFYHRETDHEEPAVLKEEQGTQSQGPGLDRGVQRKVSGSRGSFCKAGGTLENADSARRGSCPLEKCNVKAKSNVDLRRSLYALCLDTSRETDL
- binding result: binds
